From publication PMC3123307, “Identification of the Allosteric Regulatory Site of Insulysin” (PLoS ONE, 2011) come the findings set out here.

In data set [1] the target is Native rat insulin degrading enzyme (rIDE, insulysin), wild type, residues 42-1019 (rat) (UniProt P35559).
Data set [2] deals with the molecule itself. Kind of data set: crystal structure; wild type rIDE and rIDE-E111F, no substrate peptide added; enzyme at 8 mg/ml in 50 mM Tris 7.4, 1 mM DTT, 100 mM NaCl; sitting drop, 100 mM sodium citrate pH 6.5, 100 mM ammonium acetate, 20% PEG 4000, 20 or 22°C; space group C2, one molecule per asymmetric unit.

Residue numbers refer to the chain shown, from its start. Names and notes keep the numbering of the source.

In turn, “bradykinin (from UniProt P01042 381-389) (peptide)” returned an enzyme activity: activation by bradykinin of hydrolysis of 10 µM Abz-…-EDDnp in data set [1] of 4 fold.

B1: Native rat insulin degrading enzyme (rIDE, insulysin), wild type, residues 42-1019 (enzyme, UniProt P35559 42-1019, looked up)
chain: MNNPAIQRIEDHIVKSPEDKREYRGLELANGIKVLLISDPTTDKSSAALDVHIGSLSDPPNIPGLSHFCEHMLFLGTKKYPKENEYSQFLSEHAGSSNAFTSGEHTNYYFDVSHEHLEGALDRFAQFFLCPLFDASCKDREVNAVDSEHEKNVMNDAWRLFQLEKATGNPKHPFSKFGTGNKYTLETRPNQEGIDVREELLKFHSTYYSSNLMAICVLGRESLDDLTNLVVKLFSEVENKNVPLPEFPEHPFQEEHLKQLYKIVPIKDIRNLYVTFPIPDLQQYYKSNPGHYLGHLIGHEGPGSLLSELKSKGWVNTLVGGQKEGARGFMFFIINVDLTEEGLLHVEDIILHMFQYIQKLRAEGPQEWVFQECKDLNAVAFRFKDKERPRGYTSKIAGKLHYYPLNGVLTAEYLLEEFRPDLIDMVLDKLRPENVRVAIVSKSFEGKTDRTEQWYGTQYKQEAIPEDVIQKWQNADLNGKFKLPTKNEFIPTNFEILALEKDATPYPALIKDTAMSKLWFKQDDKFFLPKACLNFEFFSPFAYVDPLHCNMAYLYLELLKDSLNEYAYAAELAGLSYDLQNTIYGMYLSVKGYNDKQPILLKKITEKMATFEIDKKRFEIIKEAYMRSLNNFRAEQPHQHAMYYLRLLMTEVAWTKDELKEALDDVTLPRLKAFIPQLLSRLHIEALLHGNITKQAALGVMQMVEDTLIEHAHTKPLLPSQLVRYREVQLPDRGWFVYQRRNEVHNNCGIEIYYQTDMQSTSENMFLELFCQIISEPCFNTLRTKEQLGYIVFSGPRRANGIQGLRFIIQSEKPPHYLESRVEAFLITMEKAIEDMTEEAFQKHIQALAIRRLDKPKKLSAECAKYWGEIISQQYNYDRDNIEVAYLKTLSKDDIIKFYKEMLAVDAPRRHKVSVHVLAREMDSCPVVGEFPSQNDINLSEAPPLPQPEVIHNMTEFKRGLPLFPLVKPHINFMAAKL
notes: Insulin-degrading enzyme (insulysin, EC 3.4.24.56), rat; begins at methionine 42 and extends through the native C-terminal residue leucine 1019 (the same paragraph also prints 'residues 42-1016'); In the crystal there is one molecule per asymmetric unit, and the dimer is formed by crystal symmetry; Expressed from pFastBac HTb; The model contains residues 42-963 and 980-1011; also called wild type …
With B1, the binding result in data set [2] was “binds”.

B2: rat insulin degrading enzyme E111F mutant (rIDE-E111F), residues 42-1019 (enzyme, UniProt P35559 42-1019, looked up)
chain: B1 chain with E70F
notes: Insulin-degrading enzyme (insulysin), rat; begins at methionine 42 and extends through leucine 1019; catalytically compromised E111F mutant; No zinc ion in the crystal structure; The model contains residues 42-965 and 978-1011; also called E111F-rIDE; E111F IDE mutant; not shown: His6, N-terminal, cleaved
Consider B2, for which the binding result in data set [2] is listed as “binds”.
